Assay results reported in patent US20190153113A1, “CD39 VASCULAR ISOFORM TARGETING AGENTS” (INNATE PHARMA, priority 2015, published 2019).

Experiments:
[1] = biological target: T1, CD39 mutant 19 (R138A, M139A, E142K) (human, UniProt P49961 1-510); assay: flow cytometry, HEK293T cells transfected with mutant 19
T1 construct: Transfected in HEK293T cells
T1 chain: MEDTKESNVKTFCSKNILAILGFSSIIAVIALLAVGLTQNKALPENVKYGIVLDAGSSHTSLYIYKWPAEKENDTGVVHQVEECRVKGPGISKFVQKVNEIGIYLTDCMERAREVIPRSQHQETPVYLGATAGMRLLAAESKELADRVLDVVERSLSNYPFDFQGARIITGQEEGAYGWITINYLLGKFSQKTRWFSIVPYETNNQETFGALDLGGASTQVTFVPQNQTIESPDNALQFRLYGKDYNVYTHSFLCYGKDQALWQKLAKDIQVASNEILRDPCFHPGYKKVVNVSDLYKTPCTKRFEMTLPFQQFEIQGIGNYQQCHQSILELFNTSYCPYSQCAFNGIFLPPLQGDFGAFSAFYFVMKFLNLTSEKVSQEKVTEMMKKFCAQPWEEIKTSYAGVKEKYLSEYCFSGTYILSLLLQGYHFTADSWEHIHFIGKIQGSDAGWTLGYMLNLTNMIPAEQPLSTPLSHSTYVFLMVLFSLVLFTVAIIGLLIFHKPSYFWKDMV

[2] = biological target: T2, Recombinant human CD39-L2 (NTPDase6, ENTPD6) (human, UniProt O75354 61-484, limits assumed); assay: ELISA on coated RechuCD39-L2, OD 450 nm [top panel CHS2-I-391]
T2 construct: Coated in ELISA
T2 sequence: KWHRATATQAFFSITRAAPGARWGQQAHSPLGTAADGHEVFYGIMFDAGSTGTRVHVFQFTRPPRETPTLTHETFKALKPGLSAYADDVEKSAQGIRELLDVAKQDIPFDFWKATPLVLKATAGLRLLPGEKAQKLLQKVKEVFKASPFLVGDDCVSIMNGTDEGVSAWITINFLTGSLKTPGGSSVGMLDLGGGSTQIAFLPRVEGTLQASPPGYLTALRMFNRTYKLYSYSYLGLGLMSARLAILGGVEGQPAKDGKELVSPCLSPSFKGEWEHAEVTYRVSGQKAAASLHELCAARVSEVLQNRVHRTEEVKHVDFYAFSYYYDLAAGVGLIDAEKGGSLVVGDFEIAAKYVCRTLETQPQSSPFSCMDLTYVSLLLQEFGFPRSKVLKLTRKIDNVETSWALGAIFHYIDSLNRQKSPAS
Procedure: Wells were washed in TBS Tween 20, and further saturated 2H at RT in TBS Blocking buffer. Dose range concentration of primary antibody was incubated in TBS blocking buffer for 2h at RT. Wells were washed in TBS Tween 20. […] Optical density was measured on Enspire at OD=450.

[3] = biological target: T3, Human CD39 (vascular CD39, NTPDase1, ENTPD1) expressed at the cell surface (human, UniProt P49961 1-510); assay: flow cytometry on HEK cells expressing human CD39, antibody 99 nM to 0.045 nM (FIG. 1 legend says ELISA)
T3 construct: also called huCD39; HEK-huCD39
T3 sequence: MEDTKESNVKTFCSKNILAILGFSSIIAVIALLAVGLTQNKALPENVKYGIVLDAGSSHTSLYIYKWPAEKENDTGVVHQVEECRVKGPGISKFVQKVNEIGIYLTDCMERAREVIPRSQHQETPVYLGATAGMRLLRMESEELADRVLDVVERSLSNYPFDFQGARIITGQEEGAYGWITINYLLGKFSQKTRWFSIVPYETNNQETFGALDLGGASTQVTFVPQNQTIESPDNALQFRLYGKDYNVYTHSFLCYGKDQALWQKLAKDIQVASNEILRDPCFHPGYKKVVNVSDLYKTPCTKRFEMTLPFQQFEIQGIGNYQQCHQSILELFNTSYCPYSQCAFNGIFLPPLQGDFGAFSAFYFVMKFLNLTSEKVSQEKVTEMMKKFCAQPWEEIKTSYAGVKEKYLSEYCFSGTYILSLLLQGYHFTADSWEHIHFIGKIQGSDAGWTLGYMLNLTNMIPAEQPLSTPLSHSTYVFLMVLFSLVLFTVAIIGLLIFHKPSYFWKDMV
Procedure: (§1) Briefly, 1×10⁵ HEK-huCD39or cynoCD39 cells were incubated with various concentration of unlabeled anti-CD39 antibody or isotype control (IC) from 99 nM to 0.045 nM, for 30 minutes at 4° C. After washes, cells were incubated with Goat anti-mouse H+L labeled secondary antibody for 30 min at 4° C.

[4] = biological target: T4, Cynomolgus CD39 expressed on HEK cells (cynomolgus, UniProt A0A7N9DGH8 1-510); assay: flow cytometry on HEK cells expressing cynomolgus CD39, antibody 99 nM to 0.045 nM (FIG. 1 legend says ELISA)
T4 construct: whole, on cells; also called cynoCD39; cynomolgus vascular CD39
T4 sequence: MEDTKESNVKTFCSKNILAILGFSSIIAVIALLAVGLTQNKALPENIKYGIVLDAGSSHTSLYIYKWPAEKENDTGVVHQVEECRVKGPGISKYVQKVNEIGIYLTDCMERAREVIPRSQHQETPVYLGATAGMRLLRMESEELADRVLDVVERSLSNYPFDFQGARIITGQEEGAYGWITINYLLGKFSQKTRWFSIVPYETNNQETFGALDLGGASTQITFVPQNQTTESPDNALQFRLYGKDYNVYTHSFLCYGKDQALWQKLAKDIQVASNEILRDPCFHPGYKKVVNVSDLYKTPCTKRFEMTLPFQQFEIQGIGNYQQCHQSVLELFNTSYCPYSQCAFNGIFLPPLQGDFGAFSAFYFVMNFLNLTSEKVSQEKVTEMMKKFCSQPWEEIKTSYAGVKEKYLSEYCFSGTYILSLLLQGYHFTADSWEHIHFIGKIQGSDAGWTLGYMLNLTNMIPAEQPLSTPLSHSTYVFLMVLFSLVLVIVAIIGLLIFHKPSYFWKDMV
Procedure: as §1

binding result [1]: binds | binding result [2]: no binding (tested: 50 ug/ml) | EC50 [3]: 14.9 nM | EC50 [4]: 10.6 nM
B1: Antibody I-391, Fc silent recombinant chimeric human IgG1 with heavy chain N297Q mutation (antibody, V domains shown)
VH: QIQLVQSGPELKKPGETVKISCKASGYTFRNYGMNWVKQAPGKGLKWMGWINTYTGEPTYADDFKGRFAFSLATSASTAYLQISNLKNEDTATYFCARKAYYGSNYYFDYWGQGTTLTVSS
VL: DIVMTQSHKFMSTSVGDRVSITCKASQDVSTAVAWYQQKPGQSPKLLIYSASYRYTGVPDRFTGSGSGTDFTFTISTVQAEDLAVYYCQQHYTTPPYTFGGGTKLEIKR
